The record followed here is patent US20050095604A1 (published 2005).

The experiment deals with T1, endogenous beta-catenin of human HEK293 cells (human, UniProt P35222 2-781).
T1 construct: also called β-catenin
T1 sequence (looked up): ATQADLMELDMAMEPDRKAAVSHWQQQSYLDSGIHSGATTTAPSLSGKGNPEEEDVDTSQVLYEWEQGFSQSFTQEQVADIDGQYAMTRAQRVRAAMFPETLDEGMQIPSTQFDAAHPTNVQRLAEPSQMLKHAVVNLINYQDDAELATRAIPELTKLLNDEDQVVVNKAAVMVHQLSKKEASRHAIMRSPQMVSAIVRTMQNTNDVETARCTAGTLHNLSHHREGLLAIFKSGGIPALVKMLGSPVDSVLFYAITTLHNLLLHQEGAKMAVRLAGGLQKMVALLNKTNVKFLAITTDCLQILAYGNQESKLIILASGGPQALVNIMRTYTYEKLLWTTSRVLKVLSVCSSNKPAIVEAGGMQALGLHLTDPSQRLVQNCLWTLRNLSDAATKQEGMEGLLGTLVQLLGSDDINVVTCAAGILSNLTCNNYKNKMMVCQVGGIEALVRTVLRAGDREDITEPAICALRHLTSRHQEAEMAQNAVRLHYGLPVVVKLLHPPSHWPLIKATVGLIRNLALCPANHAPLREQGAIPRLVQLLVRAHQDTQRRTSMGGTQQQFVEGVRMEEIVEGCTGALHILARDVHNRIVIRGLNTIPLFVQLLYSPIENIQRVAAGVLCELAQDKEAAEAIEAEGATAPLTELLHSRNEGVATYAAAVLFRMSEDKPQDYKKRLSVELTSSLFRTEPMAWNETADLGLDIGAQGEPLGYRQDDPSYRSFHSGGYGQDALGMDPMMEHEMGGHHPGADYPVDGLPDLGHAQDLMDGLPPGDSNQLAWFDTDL
Kind of experiment: Talon cobalt-affinity isolation of His-tagged hPSF from 1% CHAPSO lysates of stable HEK293 cells, Western blot. (A western blot detects proteins with antibodies after separation by electrophoresis.)

B1: human presenilin stabilization factor (PSF) with C-terminal V5 and poly-histidine (6xHis) tags (other, not shown: small tags and cut ends)
chain: MGAAVFFGCTFVAFGPAFALFLITVAGDPLRVIILVAGAFFWLVSLLLASVVWFILVHVTDRSDARLQYGLLIFGAAVSVLLQEVFRFAYYKLLKKADEGLASLSEDGRSPISIRQMAYVSGLSFGIISGVFSVINILADALGPGVVGIHGDSPYYFLTSAFLTAAIILLHTFWGVVFFDACERRRYWALGLVVGSHLLTSGLTFLNPWYEASLLPIYAVTVSMGLWAFITAGGSLRSIQRSSCVRTDYLD
notes: Stably expressed in HEK293 (APP-695) cells (clonal line 2-7), solubilised in 1% CHAPSO and captured on Talon cobalt resin; Both the full-length (~25 kDa) and the processed (~15 kDa) forms were isolated; also called hPSF; PSF-V5
As for B1, the binding result was “no binding”.
